Experimental data from PMC4589676, “Functional characterization and stability improvement of a ‘thermophilic-like’ ene-reductase from Rhodococcus opacus 1CP” (Frontiers in Microbiology, 2015).

Legend:
[1] = biological target: OYERo2, ene-reductase (old yellow enzyme) from Rhodococcus opacus 1CP (Rhodococcus opacus 1CP); assay: SEC; analytical gel filtration, Superdex 200 HR 10/30, room temperature, 50 mM phosphate buffer pH 7.1 with 150 mM NaCl; high protein concentration (119 uM for OYERo2)
[2] = biological target: OYERo2, ene-reductase (old yellow enzyme) from Rhodococcus opacus 1CP (Rhodococcus opacus 1CP); assay: SEC; analytical gel filtration, Superdex 200 HR 10/30, room temperature, 50 mM phosphate buffer pH 7.1 with 150 mM NaCl; 30 uM enzyme, elution buffer with 200 uM NADPH
[3] = biological target: OYERo2, ene-reductase (old yellow enzyme) from Rhodococcus opacus 1CP (Rhodococcus opacus 1CP); assay: SEC; analytical gel filtration, Superdex 200 HR 10/30, room temperature, 50 mM phosphate buffer pH 7.1 with 150 mM NaCl; lower protein concentration (59 and 30 uM for OYERo2)
OYERo2 [4] = biological target: T1, OYERo2 (Rhodococcus opacus, UniProt A0A1B1KA86, A92R/Q93R/L94I/E95R/Y96E); assay: absorption spectra and RP-HPLC of extracted flavin; format: binding; settings: variant OYERo2a; same
T1 construct: gene O4328_33150; full length, N-terminal His10-tag kept, codon-optimised synthetic gene (1101 bp) in pET16bP, E. coli BL21 (DE3); 387 residues, theoretical 41,615 Da; variant OYERo2a is GenBank KR349312
T1 sequence (A0A1B1KA86 entry or part of it A92R/Q93R/L94I/E95R/Y96E): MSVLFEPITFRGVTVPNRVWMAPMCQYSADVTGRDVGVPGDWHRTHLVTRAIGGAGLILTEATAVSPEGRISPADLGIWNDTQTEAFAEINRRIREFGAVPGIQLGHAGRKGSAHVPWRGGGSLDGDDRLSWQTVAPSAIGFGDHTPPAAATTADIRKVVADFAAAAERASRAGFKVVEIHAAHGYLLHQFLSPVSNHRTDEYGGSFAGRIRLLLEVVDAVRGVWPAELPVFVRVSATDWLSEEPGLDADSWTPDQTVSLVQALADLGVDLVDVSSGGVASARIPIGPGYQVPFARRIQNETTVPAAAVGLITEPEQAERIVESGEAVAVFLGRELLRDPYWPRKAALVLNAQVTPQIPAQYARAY

OYERo2 [5] = biological target: T2, OYERo2 (Rhodococcus opacus, UniProt A0A1B1KA86); assay: absorption spectra and RP-HPLC of extracted flavin; format: binding; settings: non-covalent, 1:1, co-purified
T2 construct: gene O4328_33150; full length, N-terminal His10-tag kept, codon-optimised synthetic gene (1101 bp) in pET16bP, E. coli BL21 (DE3); 387 residues, theoretical 41,615 Da; variant OYERo2a is GenBank KR349312
T2 sequence (A0A1B1KA86 entry or part of it): as the sequence (A0A1B1KA86 entry or part of it A92R/Q93R/L94I/E95R/Y96E) above, with R92A, R93Q, I94L, R95E, E96Y counted along it

OYERo2 [6] = biological target: T2, OYERo2; assay: flavin absorption spectra (charge-transfer complex); format: binding; settings: phenolic ligand
From the text: flavin absorption spectra (charge-transfer complex) on OYERo2 | OYERo2 forms charge-transfer complexes with phenolic ligands. Next to 4-hydroxybenzaldehyde

With “OYERo2, ene-reductase (old yellow enzyme) from Rhodococcus opacus 1CP” the stoichiometry N [1] was 4, the stoichiometry N [2] was 2 and the stoichiometry N [3] was 2.
`Cc1cc2nc3c(=O)[nH]c(=O)nc-3n(C[C@H](O)[C@H](O)[C@H](O)COP(=O)(O)O)c2cc1C` [FMN] was tested, and the “absorption spectra and RP-HPLC of extracted flavin” value (OYERo2 [4]) was “RP-HPLC on flavin samples extracted from purified OYERo2 and OYERo2a” and the “absorption spectra and RP-HPLC of extracted flavin” value (OYERo2 [5]) was “The type of flavin cofactor was identified as FMN using RP-HPLC”.
`O=Cc1ccc(O)cc1` [4-hydroxybenzaldehyde] was tested, and the “flavin absorption spectra (charge-transfer complex)” value (OYERo2 [6]) was “OYERo2 forms charge-transfer complexes with phenolic ligands. Next to 4-hydroxybenzaldehyde”.
